Data: PMC6405639

Assays:
[1] = biological target: Y2R_cysteine_deficient_eYFP (in HEK293 cells) (human) (UniProt P49146)
[2] = biological target: Y2R_cysteine_deficient_eYFP (in HEK293 cells) (human) (UniProt P49146); remark: listed apart in the source
[3] = biological target: Y2R_cysteine_deficient_eYFP (in HEK293 cells) (human) (UniProt P49146); experiment: radioligand binding; displacement of 60 pM [125I]-PYY from membrane preparations (0.75 μg protein) of transiently transfected HEK293 cells; HBSS with 1% BSA, room temperature, 3 h; filtration

Chain of Y2R_cysteine_deficient_eYFP (in HEK293 cells) (human) (P49146 other isoform, or with tags, fused parts or gaps): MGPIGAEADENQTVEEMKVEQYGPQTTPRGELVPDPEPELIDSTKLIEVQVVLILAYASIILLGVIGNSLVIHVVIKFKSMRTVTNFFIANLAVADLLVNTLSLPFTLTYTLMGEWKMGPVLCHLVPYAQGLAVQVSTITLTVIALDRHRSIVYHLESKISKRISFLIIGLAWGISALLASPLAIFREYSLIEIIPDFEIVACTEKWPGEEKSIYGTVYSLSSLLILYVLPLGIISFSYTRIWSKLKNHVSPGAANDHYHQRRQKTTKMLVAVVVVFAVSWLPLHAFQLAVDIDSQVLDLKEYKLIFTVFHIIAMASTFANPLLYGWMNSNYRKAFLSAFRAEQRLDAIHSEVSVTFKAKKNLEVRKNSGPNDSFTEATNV

| EC50 of IP-one accumulation in HEK293 cells co-transfected with the receptor and the chimeric G protein GαΔ6qi4myr [1] | Emax of IP-one accumulation, normalised to the Y2R/NPY curve [1] | potency in the IP-one accumulation assay [2] | IC50 [3] | Ki [3] | Substance |
| --- | --- | --- | --- | --- | --- |
| 4 nM | 102% |  |  |  | [K^22[(Ahx)2-biotin]Bpa^27]NPY (peptide) |
| 3.4 nM | 95% | 3.6 nM | 39 nM | 11.2 nM | 5(6)-TAMRA-Ahx(5-24)NPY (peptide) |
